# Laboratory results taken from patent US20260000643A1, “Combination Of Curaxins And Immune Checkpoint Inhibitors For Treating Cancer” (Institute For Cancer Research d/b/a The Research Institute …, priority 2022, published 2026).
# Tested on: ADAR1 KO FLAG-ZBP1 MEFs
# Assay: Cytokine-induced ZBP1-dependent cell death in ADAR1-deficient MEFs
# Assay type: cell-based, murine
# Settings: cytokines 100 ng/mL, viability at 48 hours
# Description: Immortalized Zbp1^−/− stably reconstituted with FLAG-ZBP1 MEFs were transiently transfected with TrueGuide Synthetic sgRNA against mouse Adar1 (ThermoFisher Scientific, CRISPR162007 SGM) and TrueCut Cas9 Protein (ThermoFisher Scientific, A36499) by Lipofectamine CRISPRMAX Cas9 Transfection Reagent (ThermoFisher Scientific, CMAX00008). After two days, cells were harvest and examined ADAR1 protein level by western blot.
row,Molecule,ZBP1-dependent cell death in ADAR1-deficient MEFs
1,TNFα,not
2,"IL-1α: inflammatory cytokine of the tested panel (protein, UniProt P01583 113-271, looked up) Interleukin-1 alpha: SAPFSFLSNVKYNFMRIIKYEFILNDALNQSIIRANDQYLTAAALHNLDEAVKFDMGAYKSSKDDAKITVILRISKTQLYVTAQDEDQPVLLKEMPEIPKTITGSETNLLFFWETHGTKNYFTSVAHPNLFIATKQDYWVCLAGGPPSITDFQILENQA",not
3,"IFNγ: inflammatory cytokine of the tested panel (protein, UniProt P01579 24-161, looked up) Interferon gamma: QDPYVKEAENLKKYFNAGHSDVADNGTLFLGILKNWKEESDRKIMQSQIVSFYFKLFKNFKDDQSIQKSVETIKEDMNVKFFNSNKKKRDDFEKLTNYSVTDLNVQRKAIHELIQVMAELSPAAKTGKRKRSQMLFRG",induced ZBP1-dependent cell death
4,"TRAIL: inflammatory cytokine of the tested panel (protein, UniProt P50591 1-281, looked up) Tumor necrosis factor ligand …: MAMMEVQGGPSLGQTCVLIVIFTVLLQSLCVAVTYVYFTNELKQMQDKYSKSGIACFLKEDDSYWDPNDEESMNSPCWQVKWQLRQLVRKMILRTSEETISTVQEKQQNISPLVRERGPQRVAAHITGTRGRSNTLSSPNSKNEKALGRKINSWESSRSGHSFLSNLHLRNGELVIHEKGFYYIYSQTYFRFQEEIKENTKNDKQMVQYIYKYTSYPDPILLMKSARNSCWSKDAEYGLYSIYQGGIFELKENDRIFVSVTNEHLIDMDHEASFFGAFLVG",not
